T1: Recombinant Human FGF-23 (R&D Systems, Cat No. 2604-FG-025/CF) (human, UniProt Q9GZV9 25-251)
T1 construct: Bought protein
T1 sequence (looked up): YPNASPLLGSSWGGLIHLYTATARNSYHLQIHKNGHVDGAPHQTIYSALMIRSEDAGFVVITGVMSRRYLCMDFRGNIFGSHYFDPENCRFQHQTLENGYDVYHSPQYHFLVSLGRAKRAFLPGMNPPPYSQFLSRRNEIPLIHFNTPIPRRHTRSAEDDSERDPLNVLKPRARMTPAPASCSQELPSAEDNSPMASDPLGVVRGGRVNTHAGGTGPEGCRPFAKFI


Tests used:
[1] = target: T1, Recombinant Human FGF-23 (R&D Systems, …); test: SPR, antibody captured by anti-human IgG, FGF-23 analyte
[2] = target: T1, Recombinant Human FGF-23 (R&D Systems, …); test: cell-based or functional assay
[3] = target: T2, human FcRn (human FcRn-His tag with human β2 microglobulin) (human, UniProt P55899 24-297; P61769 21-119); test: SPR pH 6, FcRn-His captured by anti-His, antibody analyte
T2 construct: also called h FcRn; hFcRn

[4] = target: T3, monkey FcRn (monkey FcRn-His tag with monkey β2 microglobulin) (cynomolgus monkey, UniProt Q8SPV9 24-297; Q8SPW0 21-119); test: as above
T3 construct: also called cyno FcRn; cynomolgus monkey FcRn extracellular domain His-tag body
T3 sequence (Q8SPV9 other isoform, or with tags, fused parts or gaps limits assumed, chain 1 of 2): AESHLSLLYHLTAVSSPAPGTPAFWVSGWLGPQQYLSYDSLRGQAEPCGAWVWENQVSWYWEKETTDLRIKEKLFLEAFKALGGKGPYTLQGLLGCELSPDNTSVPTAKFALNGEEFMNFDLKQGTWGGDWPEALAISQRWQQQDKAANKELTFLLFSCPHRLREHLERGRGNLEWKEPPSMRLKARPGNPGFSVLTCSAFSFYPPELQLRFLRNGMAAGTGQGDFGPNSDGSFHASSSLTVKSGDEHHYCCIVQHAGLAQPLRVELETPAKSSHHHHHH
T3 sequence (Q8SPW0 21-119 limits assumed, chain 2 of 2): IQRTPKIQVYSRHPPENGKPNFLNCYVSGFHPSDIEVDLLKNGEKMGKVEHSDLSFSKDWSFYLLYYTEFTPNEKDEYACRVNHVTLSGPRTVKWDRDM

| Kd [1] [nM] | FGF23 neutralizing activity IC50 (luciferase promoter assay) [2] [µg/mL] | Kd [3] [nM] | Kd [4] [nM] | Binder |
| --- | --- | --- | --- | --- |
| 0.149 | 0.0779 |  |  | antibody D105W (antibody, human IgG1, V domains shown, also called modified antibody D105) VH: QVQLVQSGAEVKKPGASVKVSCKASGYTFTNHYMHWVRQAPGQGLEWMGIINPISGSTSNAQKFQGRVTMTRDTSTSTVYMELSSLRSEDTAVYYCARDIVDAFWFWGQGTMVTVSS VL: AIQLTQSPSSLSASVGDRVTITCRASQGISSALVWYQQKPGKAPKLLIYDASSLESGVPSRFSGSGSGTDFTLTISSLQPEDFATYYCQQFNDYFTFGPGTKVDIK |
| 0.102 | 0.0216 |  |  | antibody D105Y (antibody, human IgG1, V domains shown, also called modified antibody D105) VH: QVQLVQSGAEVKKPGASVKVSCKASGYTFTNHYMHWVRQAPGQGLEWMGIINPISGSTSNAQKFQGRVTMTRDTSTSTVYMELSSLRSEDTAVYYCARDIVDAFYFWGQGTMVTVSS VL: AIQLTQSPSSLSASVGDRVTITCRASQGISSALVWYQQKPGKAPKLLIYDASSLESGVPSRFSGSGSGTDFTLTISSLQPEDFATYYCQQFNDYFTFGPGTKVDIK |
| 0.263 | > 0.1 |  |  | antibody D105V (antibody, human IgG1, V domains shown, also called modified antibody D105) VH: QVQLVQSGAEVKKPGASVKVSCKASGYTFTNHYMHWVRQAPGQGLEWMGIINPISGSTSNAQKFQGRVTMTRDTSTSTVYMELSSLRSEDTAVYYCARDIVDAFVFWGQGTMVTVSS VL: AIQLTQSPSSLSASVGDRVTITCRASQGISSALVWYQQKPGKAPKLLIYDASSLESGVPSRFSGSGSGTDFTLTISSLQPEDFATYYCQQFNDYFTFGPGTKVDIK |
| 1.91 | > 0.1 |  |  | antibody D105R (antibody, human IgG1, V domains shown, also called modified antibody D105) VH: QVQLVQSGAEVKKPGASVKVSCKASGYTFTNHYMHWVRQAPGQGLEWMGIINPISGSTSNAQKFQGRVTMTRDTSTSTVYMELSSLRSEDTAVYYCARDIVDAFRFWGQGTMVTVSS VL: AIQLTQSPSSLSASVGDRVTITCRASQGISSALVWYQQKPGKAPKLLIYDASSLESGVPSRFSGSGSGTDFTLTISSLQPEDFATYYCQQFNDYFTFGPGTKVDIK |
| 0.106 | 0.0278 |  |  | antibody D105S (antibody, human IgG1, V domains shown, also called modified antibody D105) VH: QVQLVQSGAEVKKPGASVKVSCKASGYTFTNHYMHWVRQAPGQGLEWMGIINPISGSTSNAQKFQGRVTMTRDTSTSTVYMELSSLRSEDTAVYYCARDIVDAFSFWGQGTMVTVSS VL: AIQLTQSPSSLSASVGDRVTITCRASQGISSALVWYQQKPGKAPKLLIYDASSLESGVPSRFSGSGSGTDFTLTISSLQPEDFATYYCQQFNDYFTFGPGTKVDIK |

The remaining lines, values behind:

| Binder | Kd [1] [nM] | FGF23 neutralizing activity IC50 (luciferase promoter assay) [2] [µg/mL] | Kd [3] [nM] | Kd [4] [nM] |
| --- | --- | --- | --- | --- |
| antibody D105N (antibody, human IgG1, V domains shown, also called modified antibody D105) VH: QVQLVQSGAEVKKPGASVKVSCKASGYTFTNHYMHWVRQAPGQGLEWMGIINPISGSTSNAQKFQGRVTMTRDTSTSTVYMELSSLRSEDTAVYYCARDIVDAFNFWGQGTMVTVSS VL: AIQLTQSPSSLSASVGDRVTITCRASQGISSALVWYQQKPGKAPKLLIYDASSLESGVPSRFSGSGSGTDFTLTISSLQPEDFATYYCQQFNDYFTFGPGTKVDIK | 0.046 | 0.014 |  |  |
| antibody A_A (antibody, human IgG1, name in EU numbering, not shown: human kappa chain constant region; copies: 2 + 2) heavy: not shown light: AIQLTQSPSSLSASVGDRVTITCRASQGISSALVWYQQKPGKAPKLLIYDASSLESGVPSRFSGSGSGTDFTLTISSLQPEDFATYYCQQFNDYFTFGPGTKVDIK |  |  | 308 | 155 |
| antibody A_G2 (antibody, human IgG2, domain: CH; CH of antibody A replaced by a CH of human IgG2; also called A2_G2; not shown: human kappa chain constant region; copies: 2 + 2) heavy: QVQLVQSGAEVKKPGASVKVSCKASGYTFTNHYMHWVRQAPGQGLEWMGIINPISGSTSNAQKFQGRVTMTRDTSTSTVYMELSSLRSEDTAVYYCARDIVDAFDFWGQGTMVTVSSASTKGPSVFPLAPCSRSTSESTAALGCLVKDYFPEPVTVSWNSGALTSGVHTFPAVLQSSGLYSLSSVVTVPSSNFGTQTYTCNVDHKPSNTKVDKTVERKCCVECPPCPAPPVAGPSVFLFPPKPKDTLMISRTPEVTCVVVDVSHEDPEVQFNWYVDGVEVHNAKTKPREEQFNSTFRVVSVLTVVHQDWLNGKEYKCKVSNKGLPAPIEKTISKTKGQPREPQVYTLPPSREEMTKNQVSLTCLVKGFYPSDIAVEWESNGQPENNYKTTPPMLDSDGSFFLYSKLTVDKSRWQQGNVFSCSVMHEALHNHYTQKSLSLSPGK light: AIQLTQSPSSLSASVGDRVTITCRASQGISSALVWYQQKPGKAPKLLIYDASSLESGVPSRFSGSGSGTDFTLTISSLQPEDFATYYCQQFNDYFTFGPGTKVDIK |  |  | 624 | 233 |
| antibody D105Q (antibody, human IgG1, V domains shown, also called modified antibody D105) VH: QVQLVQSGAEVKKPGASVKVSCKASGYTFTNHYMHWVRQAPGQGLEWMGIINPISGSTSNAQKFQGRVTMTRDTSTSTVYMELSSLRSEDTAVYYCARDIVDAFQFWGQGTMVTVSS VL: AIQLTQSPSSLSASVGDRVTITCRASQGISSALVWYQQKPGKAPKLLIYDASSLESGVPSRFSGSGSGTDFTLTISSLQPEDFATYYCQQFNDYFTFGPGTKVDIK | 0.252 | > 0.1 |  |  |
| antibody A_YTE (antibody, IgG1, IgG1 CH with M252Y/S254T/T256E (EU index); not shown: human kappa chain constant region; copies: 2 + 2) heavy: QVQLVQSGAEVKKPGASVKVSCKASGYTFTNHYMHWVRQAPGQGLEWMGIINPISGSTSNAQKFQGRVTMTRDTSTSTVYMELSSLRSEDTAVYYCARDIVDAFDFWGQGTMVTVSSASTKGPSVFPLAPSSKSTSGGTAALGCLVKDYFPEPVTVSWNSGALTSGVHTFPAVLQSSGLYSLSSVVTVPSSSLGTQTYICNVNHKPSNTKVDKKVEPKSCDKTHTCPPCPAPELLGGPSVFLFPPKPKDTLYITREPEVTCVVVDVSHEDPEVKFNWYVDGVEVHNAKTKPREEQYNSTYRVVSVLTVLHQDWLNGKEYKCKVSNKALPAPIEKTISKAKGQPREPQVYTLPPSRDELTKNQVSLTCLVKGFYPSDIAVEWESNGQPENNYKTTPPVLDSDGSFFLYSKLTVDKSRWQQGNVFSCSVMHEALHNHYTQKSLSLSPGK light: AIQLTQSPSSLSASVGDRVTITCRASQGISSALVWYQQKPGKAPKLLIYDASSLESGVPSRFSGSGSGTDFTLTISSLQPEDFATYYCQQFNDYFTFGPGTKVDIK |  |  | 159 | 115 |
| antibody D105P (antibody, human IgG1, V domains shown, also called modified antibody D105) VH: QVQLVQSGAEVKKPGASVKVSCKASGYTFTNHYMHWVRQAPGQGLEWMGIINPISGSTSNAQKFQGRVTMTRDTSTSTVYMELSSLRSEDTAVYYCARDIVDAFPFWGQGTMVTVSS VL: AIQLTQSPSSLSASVGDRVTITCRASQGISSALVWYQQKPGKAPKLLIYDASSLESGVPSRFSGSGSGTDFTLTISSLQPEDFATYYCQQFNDYFTFGPGTKVDIK | 0.201 | 0.0992 |  |  |
| antibody A_G2_P (antibody, human IgG2, name in EU numbering, domain: CH; Human IgG2 CH with modification (10-4), EU index; not shown: human kappa chain constant region; copies: 2 + 2) heavy: QVQLVQSGAEVKKPGASVKVSCKASGYTFTNHYMHWVRQAPGQGLEWMGIINPISGSTSNAQKFQGRVTMTRDTSTSTVYMELSSLRSEDTAVYYCARDIVDAFDFWGQGTMVTVSSASTKGPSVFPLAPCSRSTSESTAALGCLVKDYFPEPVTVSWNSGALTSGVHTFPAVLQSSGLYSLSSVVTVPSSNFGTQTYTCNVDHKPSNTKVDKTVERKCCVECPPCPAPPVAGPSVFLFPPKPKDTLMISRTPEVTCVVVDVSHEDPEVQFNWYVDGVEVHNAKTKPREEQFNSTFRVVSVLTPVHQDWLNGKEYKCKVSNKGLPAPIEKTISKTKGQPREPQVYTLPPSREEMTKNQVSLTCLVKGFYPSDISVEWESNGQPENNYKTTPPMLDSDGSFFLYSKLTVDKSRWQQGNVFSCSVMHEALHNHYTQKSLSLSPGK light: AIQLTQSPSSLSASVGDRVTITCRASQGISSALVWYQQKPGKAPKLLIYDASSLESGVPSRFSGSGSGTDFTLTISSLQPEDFATYYCQQFNDYFTFGPGTKVDIK |  |  | 234 | 78.2 |
| antibody A_G2_A (antibody, human IgG2, name in EU numbering, domain: CH; Human IgG2 CH with modification (10-3), EU index; not shown: human kappa chain constant region; copies: 2 + 2) heavy: QVQLVQSGAEVKKPGASVKVSCKASGYTFTNHYMHWVRQAPGQGLEWMGIINPISGSTSNAQKFQGRVTMTRDTSTSTVYMELSSLRSEDTAVYYCARDIVDAFDFWGQGTMVTVSSASTKGPSVFPLAPCSRSTSESTAALGCLVKDYFPEPVTVSWNSGALTSGVHTFPAVLQSSGLYSLSSVVTVPSSNFGTQTYTCNVDHKPSNTKVDKTVERKCCVECPPCPAPPVAGPSVFLFPPKPKDTLMISRTPEVTCVVVDVSHEDPEVQFNWYVDGVEVHNAKTKPREEQFNSTFRVVSVLTVVHQDWLNGKEYKCKVSNKGLPAPIEKTISKTKGQPREPQVYTLPPSREEMTKNQVSLTCLVKGFYPSDISVEWESNGQPENNYKTTPPMLDSDGSFFLYSKLTVDKSRWQQGNVFSCSVMHEALHAHYTQKSLSLSPGK light: AIQLTQSPSSLSASVGDRVTITCRASQGISSALVWYQQKPGKAPKLLIYDASSLESGVPSRFSGSGSGTDFTLTISSLQPEDFATYYCQQFNDYFTFGPGTKVDIK |  |  | 286 | 133 |
| antibody A_P (antibody, human IgG1, name in EU numbering, positions are EU index; not shown: human kappa chain constant region; copies: 2 + 2) heavy: not shown light: AIQLTQSPSSLSASVGDRVTITCRASQGISSALVWYQQKPGKAPKLLIYDASSLESGVPSRFSGSGSGTDFTLTISSLQPEDFATYYCQQFNDYFTFGPGTKVDIK |  |  | 183 | 60.2 |
